Results from article PMC4116807 (Biochimica et biophysica acta, 2014).

Target: the molecule itself
Assay: AUC

B1: periplasmic sensor domain of the histidine kinase CusS (CusS 39-187) (domain or fragment, Escherichia coli W3110)
chain: VKVHFAEQDINDLKEISATLERVLNHPDETQARRLMTLEDIVSGYSNVLISLADSQGKTVYHSPGAPDIREFTRDAIPDKDAQGGEVYLLSGPTMMMPGHGHGHMEHSNWRMINLPVGPLVDGKPIYTLYIALSIDFHLHYINDLMNKLEGSS
stoichiometry N: 2
